Target: T1, Atg7, endogenous in mouse heart, Q9D906
T1 chain: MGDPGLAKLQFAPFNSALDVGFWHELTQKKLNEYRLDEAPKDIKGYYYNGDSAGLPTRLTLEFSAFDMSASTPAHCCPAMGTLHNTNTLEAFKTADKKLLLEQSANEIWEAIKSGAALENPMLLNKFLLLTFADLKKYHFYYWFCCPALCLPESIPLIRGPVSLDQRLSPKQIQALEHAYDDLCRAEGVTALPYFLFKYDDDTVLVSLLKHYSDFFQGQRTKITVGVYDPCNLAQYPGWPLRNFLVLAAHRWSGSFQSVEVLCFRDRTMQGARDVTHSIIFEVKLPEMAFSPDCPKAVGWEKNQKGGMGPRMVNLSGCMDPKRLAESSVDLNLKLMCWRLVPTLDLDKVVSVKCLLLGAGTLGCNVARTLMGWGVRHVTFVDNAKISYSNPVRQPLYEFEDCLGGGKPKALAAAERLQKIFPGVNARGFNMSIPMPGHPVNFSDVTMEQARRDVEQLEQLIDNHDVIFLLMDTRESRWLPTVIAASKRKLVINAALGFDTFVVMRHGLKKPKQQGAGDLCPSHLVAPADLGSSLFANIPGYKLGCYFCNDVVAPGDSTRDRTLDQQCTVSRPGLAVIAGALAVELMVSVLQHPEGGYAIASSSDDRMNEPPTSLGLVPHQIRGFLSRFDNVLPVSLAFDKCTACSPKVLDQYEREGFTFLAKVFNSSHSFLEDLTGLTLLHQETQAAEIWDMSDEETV
Assay: coimmunoprecipitation with anti-FLAG-agarose beads, immunoblot for Atg7, quantified
Settings: chain shown with the change, Tg-Flag-Trx1 C35S mouse heart, n = 4, read off a plot

B1: Trx1 (wild type) C35S (protein)
chain: MVKQIESKTAFQEALDAAGDKLVVVDFSATWCGPSKMIKPFFHSLSEKYSNVIFLEVDVDDCQDVASECEVKCMPTFQFFKKGQKVGEFSGANKEKLEATINELV
response (Arbitrary unit) (ischemia for 20 minutes): 0.8 | response (Arbitrary unit) (sham operation): 0.55
